Measured values reported in patent publication US20100080803A1.
Where no end group is shown, it is not given here.

Molecular target: a seven trans-membrane receptor
Experiment: cell-based or functional assay

A half-saturation effect of the peptide on the decrease in cell area of A7R5 cells with 5 nM bradykinin of 9.35 µM and an increase of rat uterine contraction in the presence of oxytocin (isometric tissue bath, 100 µM peptide) of 30% were found for AAHLPAEFTPAVHASLDKF-NH2 [2.022 kDa peptide, amino acids 110-128 of α-chain hemoglobin (SEQ ID No: 9)] in this work.
